The source of these data is PMC3516615 (Structure (London, England : 1993), 2012).

The term Kd denotes the free concentration of one partner at which half of the binding sites on the other are occupied at equilibrium, for simple one-to-one binding. A higher Kd goes with lower affinity.

The target in experiment [1] is T1, EphA2 SAM domain K917D (human, UniProt P29317 897-976, K917D).
T1 sequence (looked up): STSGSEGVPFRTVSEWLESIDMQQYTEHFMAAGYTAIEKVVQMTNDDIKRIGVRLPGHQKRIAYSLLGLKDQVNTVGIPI
The experiment is described as follows: ITC. (In ITC the heat of successive injections is recorded.)

Experiment [2] concerns the target T2, EphA2 SAM domain K917E (human, UniProt P29317 897-976, K917E).
T2 sequence (looked up): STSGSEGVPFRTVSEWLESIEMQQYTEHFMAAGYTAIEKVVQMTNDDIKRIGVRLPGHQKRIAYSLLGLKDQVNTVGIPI
The experiment is described as follows: ITC.

Experiment [3] addresses T3, EphA2 SAM domain R950E (human, UniProt P29317 897-976, R950E).
T3 sequence (looked up): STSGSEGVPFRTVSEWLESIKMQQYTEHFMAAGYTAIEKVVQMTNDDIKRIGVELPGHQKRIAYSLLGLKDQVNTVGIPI
The experiment is described as follows: ITC.

The target in experiment [4] is T4, EphA2 SAM domain K956D (human, UniProt P29317 897-976, K956D).
T4 sequence (looked up): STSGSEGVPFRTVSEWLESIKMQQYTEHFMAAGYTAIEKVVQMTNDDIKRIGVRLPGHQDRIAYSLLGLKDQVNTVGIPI
Nature of the experiment: ITC.

Experiment [5] concerns the target T5, EphA2 SAM domain (wild type) (human, UniProt P29317 897-976).
T5 sequence (looked up): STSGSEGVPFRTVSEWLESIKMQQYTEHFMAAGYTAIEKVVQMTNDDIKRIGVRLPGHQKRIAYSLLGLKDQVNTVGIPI
Nature of the experiment: ITC.

Experiment [6] has as its target T5, EphA2 SAM domain (wild type). Nature of the experiment: ITC. This is another data set of the same source.
Experiment [7] deals with EphA2, full length, R950T, expressed in U87 cells (human, UniProt P29317 24-976, R950T). The experiment is described as follows: co-IP.

B1: SHIP2 SAM domain D1224K (domain or fragment, human, UniProt O15357 1192-1258, looked up)
chain: RASGLGEAGMSAWLRAIGLERYEEGLVHNGWDKLEFLSDITEEDLEEAGVQDPAHKRLLLDTLQLSK
With B1, in experiment [1], the Kd stood at 10 ± 2 µM and the dH is -2.5 kcal/mol.

B2: SHIP2 SAM domain E1226K (domain or fragment, human, UniProt O15357 1192-1258, looked up)
chain: RASGLGEAGMSAWLRAIGLERYEEGLVHNGWDDLKFLSDITEEDLEEAGVQDPAHKRLLLDTLQLSK
In experiment [2], B2 registered a Kd of 15.4 ± 1.9 µM and a dH of -2 kcal/mol.

B3: SHIP2 SAM domain H1219R (domain or fragment, human, UniProt O15357 1192-1258, looked up)
chain: RASGLGEAGMSAWLRAIGLERYEEGLVRNGWDDLEFLSDITEEDLEEAGVQDPAHKRLLLDTLQLSK
In experiment [3], B3 gave a Kd of 1.3 ± 0.1 µM and a dH of -5 kcal/mol.

B4: SHIP2 SAM domain D1235K (domain or fragment, human, UniProt O15357 1192-1258, looked up)
chain: RASGLGEAGMSAWLRAIGLERYEEGLVHNGWDDLEFLSDITEEKLEEAGVQDPAHKRLLLDTLQLSK
For the molecule B4, in experiment [4], the affinity, expressed as Kd, was 7 ± 3 µM and the dH was -0.8 kcal/mol.

B5: SHIP2 SAM domain H1219S (domain or fragment, human, UniProt O15357 1192-1258, looked up)
chain: RASGLGEAGMSAWLRAIGLERYEEGLVSNGWDDLEFLSDITEEDLEEAGVQDPAHKRLLLDTLQLSK
Regarding B5, the “fold enhancement of the interaction against the wild-type pair” value in experiment [5] was about 4 fold.

B6: SHIP2 SAM domain H1219E (domain or fragment, human, UniProt O15357 1192-1258, looked up)
chain: RASGLGEAGMSAWLRAIGLERYEEGLVENGWDDLEFLSDITEEDLEEAGVQDPAHKRLLLDTLQLSK
For B6, in experiment [3], binding was characterised by a dissociation constant (Kd) of 11.2 ± 2.7 µM and the dH was -7.5 kcal/mol. In experiment [6], the equilibrium dissociation constant (Kd) was determined as 4 ± 0.4 µM and the dH is -5.5 kcal/mol.

B7: SHIP2 (SH2-linked inositol phosphatase 2), endogenous in U87 cells (enzyme, human (endogenous in U87), UniProt O15357 1-1258, looked up)
chain: MASACGAPGPGGALGSQAPSWYHRDLSRAAAEELLARAGRDGSFLVRDSESVAGAFALCVLYQKHVHTYRILPDGEDFLAVQTSQGVPVRRFQTLGELIGLYAQPNQGLVCALLLPVEGEREPDPPDDRDASDGEDEKPPLPPRSGSTSISAPTGPSSPLPAPETPTAPAAESAPNGLSTVSHDYLKGSYGLDLEAVRGGASHLPHLTRTLATSCRRLHSEVDKVLSGLEILSKVFDQQSSPMVTRLLQQQNLPQTGEQELESLVLKLSVLKDFLSGIQKKALKALQDMSSTAPPAPQPSTRKAKTIPVQAFEVKLDVTLGDLTKIGKSQKFTLSVDVEGGRLVLLRRQRDSQEDWTTFTHDRIRQLIKSQRVQNKLGVVFEKEKDRTQRKDFIFVSARKREAFCQLLQLMKNKHSKQDEPDMISVFIGTWNMGSVPPPKNVTSWFTSKGLGKTLDEVTVTIPHDIYVFGTQENSVGDREWLDLLRGGLKELTDLDYRPIAMQSLWNIKVAVLVKPEHENRISHVSTSSVKTGIANTLGNKGAVGVSFMFNGTSFGFVNCHLTSGNEKTARRNQNYLDILRLLSLGDRQLNAFDISLRFTHLFWFGDLNYRLDMDIQEILNYISRKEFEPLLRVDQLNLEREKHKVFLRFSEEEISFPPTYRYERGSRDTYAWHKQKPTGVRTNVPSWCDRILWKSYPETHIICNSYGCTDDIVTSDHSPVFGTFEVGVTSQFISKKGLSKTSDQAYIEFESIEAIVKTASRTKFFIEFYSTCLEEYKKSFENDAQSSDNINFLKVQWSSRQLPTLKPILADIEYLQDQHLLLTVKSMDGYESYGECVVALKSMIGSTAQQFLTFLSHRGEETGNIRGSMKVRVPTERLGTRERLYEWISIDKDEAGAKSKAPSVSRGSQEPRSGSRKPAFTEASCPLSRLFEEPEKPPPTGRPPAPPRAAPREEPLTPRLKPEGAPEPEGVAAPPPKNSFNNPAYYVLEGVPHQLLPPEPPSPARAPVPSATKNKVAITVPAPQLGHHRHPRVGEGSSSDEESGGTLPPPDFPPPPLPDSAIFLPPSLDPLPGPVVRGRGGAEARGPPPPKAHPRPPLPPGPSPASTFLGEVASGDDRSCSVLQMAKTLSEVDYAPAGPARSALLPGPLELQPPRGLPSDYGRPLSFPPPRIRESIQEDLAEEAPCLQGGRASGLGEAGMSAWLRAIGLERYEEGLVHNGWDDLEFLSDITEEDLEEAGVQDPAHKRLLLDTLQLSK
With B7, the “fold binding against wild type EphA2” value in experiment [7] is about 2 fold.
